Measurements from patent US20190023770A1.
Substitutions are numbered along the chain they refer to.

B1: monoclonal antibody 39.29 NWPP (antibody, V domains shown)
VH: EVQLVESGGGVVQPGKSLRLSCAASGLTFSSYAVHWVRQAPGKGLEWVTLISYDGANQYYADSVKGRFTISRDNSKNTVYLQMNSLRPEDTAVYYCAVPGPVFGIFPPWSYFDNWGQGILVTVSS
VL: EIVLTQSPATLSVSPGERATLSCRASQVISHNLAWYQQKPGQAPRLLIYGASTRASGIPARFSGSGSGTDYTLTITSLQSEDFAVYYCQHYSNWPPRLTFGGGTKVEIK
B2: monoclonal antibody 39.29 NCv1 (antibody, V domains shown)
VH: B1 VH with E1Q, L18P, L27P
VL: B1 VL with S80P

How the values were obtained:
Assay in all cases: cell-based or functional assay
[1] = biological target: hemagglutinin of influenza A virus H3N2 A/Port Chalmers/1/1973 (influenza A virus A/Port Chalmers/1/1973 (H3N2))
[2] = biological target: hemagglutinin of influenza A virus H3N2 A/Hong Kong/1/1968 (influenza A virus A/Hong Kong/1/1968 (H3N2)) (UniProt Q91MA7)
[3] = biological target: hemagglutinin of influenza A virus H3N2 A/Aichi/2/1968 (influenza A virus A/Aichi/2/1968 (H3N2)) (UniProt P03437)

Binder	in vitro IC50 (neutralization of virus infection of MDCK cells) [1]	in vitro IC50 (neutralization of virus infection of MDCK cells) [2]	in vitro IC50 (neutralization of virus infection of MDCK cells) [3]
B1	2.2 nM	45.1 nM	35 nM
B2	2.9 nM		35 nM
